Reference: the DeepSol protein solubility set

Assay: soluble on expression in E. coli; label from the status in PepcDB or PDB records

Soluble on expression in E. coli, not soluble:
MSSRTANSSSRNDESLRTGQHKENPNYWGFANFPNQVFRRAVKNGFDFTLMVVGRSGLGKSTFINTLFLAEINNLNEKESAPTHPHPSTVRVEEKLVKLVENSVSLNLTLVDTPGFGDAVNNSKCWEPIVNYVESKFFEQFCEETRIDRGEKIVDKCVHLCLYFIEPSGHGLKPIDIELMKHLHGRVNIVPVISKADCLTRDELLRFKKQIVKDAETAEIKLYKFPELEDPYTDKVAIEKLRKALPFAIIGSNMLKEKDGKKIRYREYPWGTVEVENMQHNDFLTLRDMIIRTNLIDMIDVTRNVHYENFRFRQMEGLPKNEKNRDPFTHLEEERRQKEQDLDEKRNTLEKVFTEKTSARKKRSDERMSALEELEQQNKQKIDAKRAEIIRLRHEISELKNGNLTSSQTSLAMYNENNHSQNSTLNSTTKSSPPPTSATSSSSGTMKKRMGGLGLFNRN
MGSDKIHHHHHHMNQNVTSKVYPWQQTMWETLTTRFPNIGHGLLFYGKQGCGKHAFAKHFLAWVLCLNKQPQGACGECSSCQWLKSDTHPNYVHITTDEENKKQNAKIKIEKIRDLLPFVQQTGEGWRVVVIEPAEALNLASSNALLKTLEEPGERVVLILLADHYLKLPATIRSRLQHFALDRISYTEATSYLNEHLAETASVPAELLLGLSNDMPLQAVEIATSDWFAKRQSFLEDWTKVVNQKNMPLFYSAKWQKELNFSDFMMLLEYLLGDLICVKLNQPQKNIDLQFDQLAQNYNLESLFSLYEELQQSKRLVEQNVQTQLIIDQLFIKLMNV
MGSDKIHHHHHHVRKFKIPNMGALLAFEAAARHESFTHAARELFLTESAVSRQINTLESNLGVRLFVRVKQRVMLTRAGKVYSAQVRRSLEQLDRDTLSIIAHGSGGGYLELAVLPTFASQWLIPRLAAFNAQYPDVRVNMGVRTGTFPFAETHFEAAIHYGKPTWPGTSADFLFSEEVVPVCAASLLKRPVQSAADLLDYPLVHSTTRPDGWAAWFANMGIDDNRTMQGVRYELHTMLISAAAAGLGIALVPRFFVDAQLEQLGLVIPLDAPVVADSAYYLVYPTELSHGKPLASFREWLLREAAAYSAVNPELGGPRDMD
MAHHHHHHMIDDVRICHLVLQDVKERLPLYESRLEAVNNSHVVISCWNESVKAFVPVPVAEDVEFTSDVLHEVVSLVDGLRQLGCTDFFVVFVDSGGTLSFYHVDTLRLLQSGRSGSS
YIQLEGEKFNESARVFTEYLKTKTSDEIPSLLQSYSKSLTISAHLKRDIVDKRLPLVHDLDIKDGKLSNYIVMLDMSVSTADGKQVTVQFVHGVDVYKEAKNI
MSFFPGNDPVAGDAFACDAIENLIIPRTSDIGGFAVRRALPTRQRRLVGPFIFFDRMGPAILKAGEALDVKPHPHIGLSTVTYLFDGEIKHRDSLGTELVIRPGDINLMTAGRGIVHSERTPENLRGHPLSMSGLQTWLALPDHMEEIAPAFAHTAKEDMPLIDIKGASGRVVIGEFEGLTSPVSAFTDTLYVDLSLEPGVKFPFSADHEERAIYILSGSLDVAGDIFAADQLLVFRPGDDITLQAGSNGCHIMIFGGAALNQRRYIWWNFVSSSKERIEQAKQEWRTGRFDIVPGDEEEFVPLPEG
MVARDTTAPQVKIVNPVTGNVSGSNVPISVNASDDSGASGITYALYIDGVLKATGKGSTLGYNWNIRNVAAGAHTVQVVAKDAAGNSASSSVSVTVVKLEHHHHHH
MGHHHHHHSHGSSAEIAATLGLPVVLVVDVRGMSQSVGAVVRGFATADPHVRIAGVILNKVGTDRHAEVCREAVEAVGVRVLGAIP
PVSWVLQQAPTVKGLDIQGAHGSVWQGQASSVRWQRQNLGQVNWDFQWSSLFTGKAEFSVRFGRGSDMNIRGRGLVGYSLSDGLYAENLVASIPASKAVEQARLPVPIGVDGQLELNIRHATYAAPWCKTGEGTLVWSASGIQSPVGSLELGPVIADLKCQDSVLTASGEQTSTQVSSAFSAEMMPNQRYSTKAWFKPGADFPSSMGEQLKWLGQPNAQGQYEFDYKGRF
MGNIANEAKLLKLDGKAYRNDFMLGNGKGHARDNLSRQRPGTSKRLSCSQLESLYSSNSMAKNIVDIPAEDLTRNGWSLKMQDDKVKALYESKLRQLKAKERLQQLFTYERLYGDGFVSIGTIEKREYSLSEPLDFENIKSVPYINAFSGKKISNRIIDEDVFSPNYGQIESFEVNNRSNNSRIHLLNNTTYSRATTIHRSRVLHQQNLRFEDELEGSSLLENLYDILTVADTSVWSVGQILYDFIFKVYKSADVRSLTPQDKLEIETKMDYQFRTEAIAIIDKEESLGKESSSVAGIGELLDFVWDYLAGAARMPKTVLKGQEGGTVTGAQYDVMNYYSRITAIQENQLRPHLEYLMRCLMWAEDECGGRLDPDSIEWSVEFNPLWNVDSKTDAEIRKLTAETDKIYIEAGVSDPDDVHEARFGRFGITETSKFNADSLSRDELDKMAAVVYENYKQDRDNEK
MGSDKIHHHHHHMFLAGAFIAVGSLYAQSSDAEWQAGVAKLKETIQTNPAQANEEAEQLIKGKNKKNVELLVAIGEVYLKAGKLPEAQEYAALAKKVNGKSALASVLEGDIAFEQKNAGLASQKYEEAIYFDPSCTEAYLRYADIYKSANAALAIEKLEQLKAQEPSNTAVDKKLAEIYYLKNDFSKAAEAYSRFAMGPTATEEDLVKYAFALFLNHDFEKSLEVANMGLKKNARHAAFNRLAMYNYTDLKRFDEAIKAADAFFTESDKADYSYLDYMYYGHLLEALKKYDEAVGQYEKAIQLDPTKTDLYKNISSAYEQKNDYKKAISAYQKYYTSLDKEHQTPDLQFQFGRLYYGAGTQTDSLTINAEERKQALMAADSVFHSIAEAAPDSYLGNFWRARANSALDPETTLGLAKPFYEEVATLLESKNDPHYNSALIECYSYLGYYYLLAIENPALKAEAMANKEKSKEYWSKILAIDSTNATAKRALDGIK
KETKTTVHKFGLEPPSELIQKQLRANLDDDIWEVIRSRKIDGEHVILDKDYFFRKHVPHLTKEICENSIYEYIEGELGLSISYAQKEIVAEPCTDEDRELLDLRGYDHMVVVRNYVFLEDTSLFQYTESRHRL
MRERKKYGKHIPKSLSSKINKRKLIQKNICTNYKTIKIIDIYENLPYNQLNNGRTKIKEIILANDVLVVLLISGISRAYNMINGEFLCEINPNNFSVVHTIVYNSYNNTLIIAYASFPAHLQCKVIDCNDLKHGITNSSKLGILFGT
MASTPCAACKLLRRKCTQECVFAPYFPPTNPQKFIFVHRVFGASNVTKILNDLPPDQREDTVNSLFYEAEARIRDPIYGCVGLISFLQQYLKKIQQDLLTAKEELVGYLGPDAVIPPPYLPPIGNNPPPNFMMSMEGMPPGVIPQGEPLMIREPNMSQQHHHQQPQDEQLQFIASDAQRMAAMMLERGDQQGMFNGYGIDNNGSVTATGFNQMDVNDQGAGGSLSGPSLALGSFGDAYQMGQETEHGHINHDQLQTQLMLQPPLQEGQEQTEEGQFLMQPMGQENLHDEEEEEELEPPVKWRMSENKEASF
MGSDKIHHHHHHMNNIQAIRKKVETQIDDLQNKTDEIAEFNQAKVLDAFQENKVSDFHFHPSTGYGYDDEGRDTLERVYATVFKTEAALVRPQIISGTHAISTVLFGILRPDDELLYITGQPYDTLEEIVGIRKQGQGSLKDFHIGYSSVPLLENGDVDFPRIAKKMTPKTKMIGIQRSRGYADRPSFTIEKIKEMIVFVKNINPEVIVFVDNCYGEFVEYQEPPEVGADIIAGSLIKNPGGGLAKTGGYIAGKEALVDLCGYRLTTPGIGREAGASLYSLLEMYQGFFLAPHVTAQAIKGARFTAAMLAEFGVEADPVWDAPRTDLIQSVSFHNKEKMVAFAQAIQAASPVNAHVLPIGAYMPGYEDDVIMAAGTFIQGASLELTADGPIREPYQLYVQGGLTYEHIKIAVTRAIQKIV
QVEFYFSEFNFPYDRFLRTTAEKNDGWVPISTIATFNRMKKYRPVDKVIEALRSSEILEVSADGENVKRRVPLDLTAARNARIEQNQRTLAVMNFPHEDVEASQIPELQENLEAFFKKLGEINQVRLRRDHRNKKFNGTVLVEFKTIPECEAFLKSYSNDDESNEILSYEGKKLSVLT
MGSDKIHHHHHHMTLTTKTIHVIGASFAGLAFVDKYKDLNPDSQIILIDKESCPNYIPNGINQLFRGDIQDLSDAMWGRACLAAQIESNHRFIQAEVLAIEAPSNTLLLKDSQGRVFEEGYETLVCAMGASPQSHYIETSQTNKVLVTKYYEESQASLKLIEASQEVLVIGAGLIGLDLAYSLSLQGKRVKLIEAAERPDFYQTDAELIAPVMAEMSTHHVTFINNKRVTAIHEIEGKVVAHTEQGDTFQGDLAILAINFRPNTHLLQGQVACALDKTILVNENLQTSQANIYAIGDMVSLHFGILGMDYYTPLINQAMKTGQALALHLAGYPIPPLQTVKVLGSSHFDYYRASVGVTEEEAELYMDTCSYLYQNGDSKNLFWLKLIARKTDGILIGAQLLSKTNALVIANQLGQALALKVTDADLAFQDFLFLQGHSDLAYHLHEACLKLFEKRLRHED
MKCSKCGREAIYFARYEGRYYCHKHFNELVEGKVKRTIRKYRMIKRGEKVGVAVSGGKDSVVLMHILAKLRKKFPFELVAITIDEGIKGYRDKSVEVARKNAELLGVEHHIYRFKDFIGFTLDETVEIMGPREERVGACSYCGVWRRWLLNKAAEELGVDKLALGLNLDDEVQVFLMNLMRGDVARLGRTGPYYEVIHEGLVPRIKPLREVPEKEIVLYAVLNNIEVDLSECPYATEAFRAEIRDWLNEMEEKHPGTKYQLLRSYDKIFPLLAKTYAKEVKLNRCKICGQPTSGEICKACQFRLQVKEKSENLKFSLTK
MKSTSMNTNKRFQNVNQWKLHASAAAYLAGWKVVRLLPEPVAYRLFSWAAVIASRRGRGMDQLRRNLTRVVGAESVDRALVKRSMQSYARYWCEAFRLSVIARDPDVIHRVDAHAVGVEQVNPHSPMIIVLPHSGNWDLIGMYFVKKVGTFTTVAERVKPESLFRAFVNYRRSLGFEVLPLTGSETSPYSVLLQRVREGRTVCLLGERDLTSHGVEVEFFGETTRMPAGAVKLALDSGAPLHVAHTWFEGDDWGLSLSEPVEITDVKSGVQAIAQIMEKNIKAHPQDWHLLQPLWINDLDRRRYESGLQPKND

Soluble on expression in E. coli, soluble:
MKHGILVAYKPKGPTSHDVVDEVRKKLKTRKVGHGGTLDPFACGVLIIGVNQGTRILEFYKDLKKVFWVKMRLGLITETFDITGEVVEERECNVTEEEIREAIFSFVGEYDQVPPAYSAKKYKGERLYKLAREGKIINLPPKRVKIFKIWDVNIEGRDVSFRVEVSPGTYIRSLCMDIGYKLGCGATAVELVRESVGPHTIEESLNVFEAAPEEIENRIIPLEKCLEWLPRVVVHQESTKMILNGSQIHLEMLKEWDGFKKGEVVRVFNEEGRLLALAEAERNSSFLETLRKHERQERVLTLRKVFQTR
MSLRYLSESKVAIKHSNDLNGSNLNVALLMGAGNPSSAEDALYLKEYINSPDMLAVLDKQLDFRQAFGHSGWDFFYHLSDSATREQFLNYYRNRISVSYDDKTGLLTIGTQGFSPEFAQKFNQAVLKESERFINEEGHHHHHH
PRAAGHSEEVLEREASFSLTTIDGEVISLNNVGGDVVILWFMAAWCPSCVYMADLLDRLTEKYREISVIAIDFWTAEALKALGLNKPGYPPPDTPEMFRKFIANYGDPSWIMVMDDGSLVEKFNVRSIDYIVIMDKSSNVLYAGTTPSLGELESVIKSVQGG
MLKPEMIEKLNEQMNLELYSSLLYQQMSAWCSYHTFEGAAAFLRRHAQEEMTHMQRLFDYLTDTGNLPRINTVESPFAEYSSLDELFQETYKHEQLITQKINELAHAAMTNQDYPTFNFLQWYVSEQHEEEKLFKSIIDKLSLAGKSGEGLYFIDKELSTLDTQN
